Reference: ChEMBL document CHEMBL1132365, “A multisubstrate adduct inhibitor of AICAR transformylase” (J Med Chem, 1999)

Experiments:
[1] = substrate: NC1=NC(=O)C2N=C(CN(C=O)c3ccc(C(=O)N[C@H](CCC(=O)O)C(=O)O)cc3)C=CC2N1; assay: (§1) Substrate specificity towards AICAR formyltransferase
[2] = substrate: NC1=NC(=O)C2N[C@@H](CN(C=O)c3ccc(C(=O)N[C@H](CCC(=O)O)C(=O)O)cc3)CNC2N1; assay: as §1

B1: Bifunctional purine biosynthesis protein ATIC (Homo sapiens), P31939 (protein)
chain: MAPGQLALFSVSDKTGLVEFARNLTALGLNLVASGGTAKALRDAGLAVRDVSELTGFPEMLGGRVKTLHPAVHAGILARNIPEDNADMARLDFNLIRVVACNLYPFVKTVASPGVTVEEAVEQIDIGGVTLLRAAAKNHARVTVVCEPEDYVVVSTEMQSSESKDTSLETRRQLALKAFTHTAQYDEAISDYFRKQYSKGVSQMPLRYGMNPHQTPAQLYTLQPKLPITVLNGAPGFINLCDALNAWQLVKELKEALGIPAAASFKHVSPAGAAVGIPLSEDEAKVCMVYDLYKTLTPISAAYARARGADRMSSFGDFVALSDVCDVPTAKIISREVSDGIIAPGYEEEALTILSKKKNGNYCVLQMDQSYKPDENEVRTLFGLHLSQKRNNGVVDKSLFSNVVTKNKDLPESALRDLIVATIAVKYTQSNSVCYAKNGQVIGIGAGQQSRIHCTRLAGDKANYWWLRHHPQVLSMKFKTGVKRAEISNAIDQYVTGTIGEDEDLIKWKALFEEVPELLTEAEKKEWVEKLTEVSISSDAFFPFRDNVDRAKRSGVAYIAAPSGSAADKVVIEACDELGIILAHTNLRLFHH
Q: Which results are given for B1?
A: Km [1]: 102 µM; Km [2]: 68 µM
